Results published in doi:10.1101/675587.

Target: recombinant caprine β-lactoglobulin (unlabelled) (caprine) (UniProt P02756)
Test: AUC

## recombinant caprine β-lactoglobulin (unlabelled) (from UniProt P02756 19-180) (natural protein)
  stoichiometry N: 2
